# Results from paper PMC10228544 (Science immunology, 2023).
# Positions count from the first letter of the chain named. In names and notes the source's numbering stands.
# B1: FMC63^Y261A CAR on CAR T cells (receptor)
# VH: EVKLQESGPGLVAPSQSLSVTCTVSGVSLPDYGVSWIRQPPRKGLEWLGVIWGSETTYYNSALKSRLTIIKDNSKSQVFLKMNSLQTDDTAIYYCAKHYYAGGSYAMDYWGQGTSVTVSS
# VL: DIQMTQTTSSLSASLGDRVTISCRASQDISKYLNWYQQKPDGTVKLLIYHTSRLHSGVPSRFSGSGSGTDYSLTISNLEQEDIATYFCQQGNTLPYTFGGGTKLEIT
# B2: SJ25C1^WT CAR (SJ25C1 scFv, CD28, CD3-zeta) on CAR T cells (receptor)
# VH: EVKLQQSGAELVRPGSSVKISCKASGYAFSSYWMNWVKQRPGQGLEWIGQIYPGDGDTNYNGKFKGQATLTADKSSSTAYMQLSGLTSEDSAVYFCARKTISSVVDFYFDYWGQGTTVTVSS
# VL: DIELTQSPKFMSTSVGDRVSVTCKASQNVGTNVAWYQQKPGQSPKPLIYSATYRNSGVPDRFTGSGSGTDFTLTITNVQSKDLADYFCQQYNRYPYTSGGGTKLEIK
# B3: SJ25C1^W52F CAR on CAR T cells (receptor)
# VH: B2 VH with W33F
# VL: B2 VL
# B4: SJ25C1^I120V CAR on CAR T cells (receptor)
# VH: B2 VH with I101V
# VL: B2 VL
# Target: Alexa-Fluor-488-conjugated recombinant hCD19-hFc (Homo sapiens, UniProt P15391, Alexa Fluor 488 conjugate)
# Sequence (P15391 20-291): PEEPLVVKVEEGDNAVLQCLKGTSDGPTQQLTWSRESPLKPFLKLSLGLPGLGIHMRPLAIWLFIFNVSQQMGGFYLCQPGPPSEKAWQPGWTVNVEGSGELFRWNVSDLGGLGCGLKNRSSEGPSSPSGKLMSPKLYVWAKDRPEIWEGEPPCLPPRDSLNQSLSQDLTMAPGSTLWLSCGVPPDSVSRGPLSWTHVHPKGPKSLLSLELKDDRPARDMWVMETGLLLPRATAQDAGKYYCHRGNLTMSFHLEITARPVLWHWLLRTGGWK
# Assay: flow cytometry on cells
row,Binder,binding result
1,B1,binds
2,B2,binds
3,B3,binds
4,B4,binds
